The record followed here is PMC10681803, “Dynamic ParB–DNA interactions initiate and maintain a partition condensate for bacterial chromosome segregation” (Nucleic Acids Research, 2023).

Data set [1] deals with the molecule itself. As to the kind of experiment: single-molecule fluorescence DNA-stretching assay (HiLo/TIRF microscopy); 42 kb DNA with a single parS tethered at both ends, SxG stain; 0.3 nM ParB^TMR in imaging buffer (40 mM Tris-HCl, 65 mM KCl, 2.5 mM MgCl2, 1 mM CTP); both ParB dimers loaded on the DNA.
Data set [2] deals with the molecule itself. As to the kind of experiment: cross-linking; BMOE cysteine cross-linking of ParB^T22C [2 uM] with ~200 bp DNA with parS [2 uM] and 1 mM CTP, room temperature, quenched with DTT, 12% SDS-PAGE.
Data set [3] concerns the molecule itself. Briefly: cross-linking; BMOE (1 mM) cysteine cross-linking of ParB^S278C at 10 uM in storage buffer (50 mM Tris-HCl pH 7.5, 300 mM NaCl) without DNA, quenched with DTT, 12% SDS-PAGE.

Substitutions are numbered along the chain they refer to. Numbers in names are those of the source.

B1: TMR-labelled Bacillus subtilis ParB L5C (natural protein, UniProt P26497 1-282, looked up)
chain: MAKGCGKGINALFNQVDLSEETVEEIKIADLRPNPYQPRKHFDDEALAELKESVLQHGILQPLIVRKSLKGYDIVAGERRFRAAKLAGLDTVPAIVRELSEALMREIALLENLQREDLSPLEEAQAYDSLLKHLDLTQEQLAKRLGKSRPHIANHLRLLTLPENIQQLIAEGTLSMGHGRTLLGLKNKNKLEPLVQKVIAEQLNVRQLEQLIQQLNQNVPRETKKKEPVKDAVLKERESYLQNYFGTTVNIKRQKKKGKIEIEFFSNEDLDRILELLSERES
modifications: TMR-maleimide label on the ParB^L5C variant (labelling efficiency 70% of monomers)
notes: ParB (Spo0J) of Bacillus subtilis with L5C, expressed untagged; Untagged; also called ParB^TMR; source: E. coli BL21-Gold (DE3), purified (ammonium sulfate, Heparin, HiTrap SP, Superdex 200), labelled with TMR-maleimide
As to B1, in data set [1], the binding result is “binds”.

B2: Bacillus subtilis ParB T22C (natural protein, UniProt P26497 1-282, looked up)
chain: B1 chain with C5L, T22C
notes: ParB (Spo0J) of Bacillus subtilis with T22C, expressed untagged; Untagged; C22 of the two chains is cross-linked by BMOE in the N-terminally closed clamp; source: E. coli BL21-Gold (DE3), purified
On to B2, for which the binding result in data set [2] is listed as “binds”.

B3: Bacillus subtilis ParB S278C (natural protein, UniProt P26497 1-282, looked up)
chain: B1 chain with C5L, S278C
notes: ParB (Spo0J) of Bacillus subtilis with S278C, expressed untagged; Untagged; C278 of the two chains is cross-linked by BMOE at the C-terminus; source: E. coli BL21-Gold (DE3), purified
As to B3, in data set [3], the binding result is reported as “binds”.
